Source: the supplement of paper PMC5998384

Columns and labels:
[1] = tested on: HeLa Kyoto; test: melting temperature (median over replicates), in situ; higher = more thermally stable
[2] = tested on: HeLa Kyoto; test: thermal stability score vs G1/S (z-score of summed log2 fold changes over temperatures); higher = more thermally stable than in G1/S
[3] = tested on: HeLa Kyoto; test: solubility change mitosis vs G1/S (difference of NP-40 vs SDS log2 ratios) (log2 ratio difference); higher = more soluble in mitosis
[4] = tested on: HeLa Kyoto; test: solubility in G1/S (NP-40 vs SDS abundance) (log2 ratio); higher = more soluble; conditions: cell cycle stage: G1/S
[5] = cell cycle stage: early G1 (4.5 h after nocodazole release)
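For melting temperature (median over replicates), in situ in this document: HeLa Kyoto cells synchronized by double thymidine or nocodazole block, proteins quantified by TMT10plex mass spectrometry, three independent biological replicates.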
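For solubility change mitosis vs G1/S (difference of NP-40 vs SDS log2 ratios) in this document: synchronized HeLa Kyoto cells (double thymidine block for G1/S, nocodazole release for mitosis), protein amounts in NP-40 versus SDS lysates quantified by mass spectrometry, three biological replicates.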
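For solubility in G1/S (NP-40 vs SDS abundance) in this document: HeLa Kyoto cells arrested at G1/S by double thymidine block, proteins quantified by TMT10plex mass spectrometry in mild NP-40 versus SDS extracts, three biological replicates.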
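For thermal stability score vs G1/S (z-score of summed log2 fold changes over temperatures) in this document: synchronized HeLa Kyoto cells, proteins quantified by TMT10plex mass spectrometry, three biological replicates, mitosis taken 0.5 h after nocodazole release, G1/S directly after double thymidine block.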

ARNT, sequence (chain, as listed by the source): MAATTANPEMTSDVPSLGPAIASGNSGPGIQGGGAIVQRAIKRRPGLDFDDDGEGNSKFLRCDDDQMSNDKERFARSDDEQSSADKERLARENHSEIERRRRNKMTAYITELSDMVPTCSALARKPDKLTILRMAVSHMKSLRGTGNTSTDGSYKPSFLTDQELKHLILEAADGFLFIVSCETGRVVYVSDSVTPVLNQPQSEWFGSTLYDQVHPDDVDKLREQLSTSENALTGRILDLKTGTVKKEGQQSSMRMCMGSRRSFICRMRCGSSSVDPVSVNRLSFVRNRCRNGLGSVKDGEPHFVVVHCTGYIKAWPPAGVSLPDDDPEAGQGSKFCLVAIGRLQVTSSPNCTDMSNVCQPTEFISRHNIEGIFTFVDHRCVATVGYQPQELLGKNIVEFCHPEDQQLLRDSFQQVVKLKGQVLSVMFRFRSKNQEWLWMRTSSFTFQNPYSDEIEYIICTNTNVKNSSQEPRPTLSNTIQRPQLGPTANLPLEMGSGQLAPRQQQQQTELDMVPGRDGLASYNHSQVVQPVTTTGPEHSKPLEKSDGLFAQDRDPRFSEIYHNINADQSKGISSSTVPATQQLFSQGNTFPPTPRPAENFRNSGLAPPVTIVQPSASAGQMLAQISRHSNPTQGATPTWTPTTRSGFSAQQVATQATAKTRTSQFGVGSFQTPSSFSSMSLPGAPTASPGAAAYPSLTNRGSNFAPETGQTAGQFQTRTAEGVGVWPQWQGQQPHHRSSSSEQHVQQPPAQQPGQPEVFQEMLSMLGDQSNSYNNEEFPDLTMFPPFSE

| Substance | melting temperature ([1]; cell cycle stage: G1/S) [°C] | melting temperature ([1]; cell cycle stage: mitosis) [°C] | thermal stability score [2, 5] | thermal stability score ([2]; cell cycle stage: mitosis) | solubility change mitosis (log2) [3] | solubility in G1/S (log2) [4] |
| --- | --- | --- | --- | --- | --- | --- |
| MVSKMIIENFEALKSWLSKTLEPICDADPSALAKYVLALVKKDKSEKELKALCIDQLDVFLQKETQIFVEKLFDAVNTKSYLPPPEQPSSGSLKVEFFPHQEKDIKKEEITKEEEREKKFSRRLNHSPPQSSSRYRENRSRDERKKDDRSRKRDYDRNPPRRDSYRDRYNRRRGRSRSYSRSRSRSWSKERLRERDRDRSRTRSRSRTRSRERDLVKPKYDLDRTDPLENNYTPVSSVPSISSGHYPVPTLSSTITVIAPTHHGNNTTESWSEFHEDQVDHNSYVRPPMPKKRCRDYDEKGFCMRGDMCPFDHGSDPVVVEDVNLPGMLPFPAQPPVVEGPPPPGLPPPPPILTPPPVNLRPPVPPPGPLPPSLPPVTGPPPPLPPLQPSGMDAPPNSATSSVPTVVTTGIHHQPPPAPPSLFTADTYDTDGYNPEAPSITNTSRPMYRHRVHAQRPNLIGLTSGDMDLPPREKPPNKSSMRIVVDSESRKRTIGSGEPGVPTKKTWFDKPNFNRTNSPGFQKKVQFGNENTKLELRKVPPELNNISKLNEHFSRFGTLVNLQVAYNGDPEGALIQFATYEEAKKAISSTEAVLNNRFIKVYWHREGSTQQLQTTSPKVMQPLVQQPILPVVKQSVKERLGPVPSSTIEPAEAQSASSDLPQNVTKLSVKDRLGFVSKPSVSATEKVLSTSTGLTKTVYNPAALKAAQKTLLVSTSAVDNNEAQKKKQEALKLQQDVRKRKQEILEKHIETQKMLISKLEKNKTMKSEDKAEIMKTLEVLTKNITKLKDEVKAASPGRCLPKSIKTKTQMQKELLDTELDLYKKMQAGEEVTELRRKYTELQLEAAKRGILSSGRGRGIHSRGRGAVHGRGRGRGRGRGVPGHAVVDHRPRALEISAFTESDREDLLPHFAQYGEIEDCQIDDSSLHAVITFKTRAEAEAAAVHGARFKGQDLKLAWNKPVTNISAVETEEVEPDEEEFQEESLVDDSLLQDDDEEEEDNESRSWRR [RBM26] | 47 | 48.9 | 1.92 | 4.06 | 0.0367 | -0.109 |
| MASAELQGKYQKLAQEYSKLRAQNQVLKKGVVDEQANSAALKEQLKMKDQSLRKLQQEMDSLTFRNLQLAKRVELLQDELALSEPRGKKNKKSGESSSQLSQEQKSVFDEDLQKKIEENERLHIQFFEADEQHKHVEAELRSRLATLETEAAQHQAVVDGLTRKYMETIEKLQNDKAKLEVKSQTLEKEAKECRLRTEECQLQLKTLHEDLSGRLEESLSIINEKVPFNDTKYSQYNALNVPLHNRRHQLKMRDIAGQALAFVQDLVTALLNFHTYTEQRIQIFPVDSAIDTISPLNQKFSQYLHENASYVRPLEEGMLHLFESITEDTVTVLETTVKLKTFSEHLTSYICFLRKILPYQLKSLEEECESSLCTSALRARNLELSQDMKKMTAVFEKLQTYIALLALPSTEPDGLLRTNYSSVLTNVGAALHGFHDVMKDISKHYSQKAAIEHELPTATQKLITTNDCILSSVVALTNGAGKIASFFSNNLDYFIASLSYGPKAASGFISPLSAECMLQYKKKAAAYMKSLRKPLLESVPYEEALANRRILLSSTESREGLAQQVQQSLEKISKLEQEKEHWMLEAQLAKIKLEKENQRIADKLKNTGSAQLVGLAQENAAVSNTAGQDEATAKAVLEPIQSTSLIGTLTRTSDSEVPDVESREDLIKNHYMARIVELTSQLQLADSKSVHFYAECRALSKRLALAEKSKEALTEEMKLASQNISRLQDELTTTKRSYEDQLSMMSDHLCSMNETLSKQREEIDTLKMSSKGNSKKNKSR [PPP1R21] | 51.3 | 51 | 1.34 | 1.02 | -0.00813 | 0.371 |
| MVISESMDILFRIRGGLDLAFQLATPNEIFLKKALKHVLSDLSTKLSSNALVFRICHSSVYIWPSSDINTIPGELTDASACKNILRFIQFEPEEDIKRKFMRKKDKKLSDMHQIVNIDLMLEMSTSLAAVTPIIERESGGHHYVNMTLPVDAVISVAPEETWGKVRKLLVDAIHNQLTDMEKCILKYMKGTSIVVPEPLHFLLPGKKNLVTISYPSGIPDGQLQAYRKELHDLFNLPHDRPYFKRSNAYHFPDEPYKDGYIRNPHTYLNPPNMETGMIYVVQGIYGYHHYMQDRIDDNGWGCAYRSLQTICSWFKHQGYTERSIPTHREIQQALVDAGDKPATFVGSRQWIGSIEVQLVLNQLIGITSKILFVSQGSEIASQGRELANHFQSEGTPVMIGGGVLAHTILGVAWNEITGQIKFLILDPHYTGAEDLQVILEKGWCGWKGPDFWNKDAYYNLCLPQRPNMI [UFSP2] | 51.2 | 51 | -0.738 | -0.716 | -0.212 | -0.0543 |
| ARNT | 51.9 | 51.7 | 0.603 | 0.868 | -0.182 | 0.243 |
| MAHAPARCPSARGSGDGEMGKPRNVALITGITGQDGSYLAEFLLEKGYEVHGIVRRSSSFNTGRIEHLYKNPQAHIEGNMKLHYGDLTDSTCLVKIINEVKPTEIYNLGAQSHVKISFDLAEYTADVDGVGTLRLLDAVKTCGLINSVKFYQASTSELYGKVQEIPQKETTPFYPRSPYGAAKLYAYWIVVNFREAYNLFAVNGILFNHESPRRGANFVTRKISRSVAKIYLGQLECFSLGNLDAKRDWGHAKDYVEAMWLMLQNDEPEDFVIATGEVHSVREFVEKSFLHIGKTIVWEGKNENEVGRCKETGKVHVTVDLKYYRPTEVDFLQGDCTKAKQKLNWKPRVAFDELVREMVHADVELMRTNPNA [GMDS] | 56.4 | 57.4 | -0.0264 | -1.35 | -0.00656 | -0.249 |
| MMEERAAAAVAAAASSCRPLGSGAGPGPTGAAPVSAPAPGPGPAGKGGGGGGSPGPTAGPEPLSLPGILHFIQHEWARFEAEKARWEAERAELQAQVAFLQGERKGQENLKTDLVRRIKMLEYALKQERAKYHKLKFGTDLNQGEKKADVSEQVSNGPVESVTLENSPLVWKEGRQLLRQYLEEVGYTDTILDMRSKRVRSLLGRSLELNGAVEPSEGAPRAPPGPAGLSGGESLLVKQIEEQIKRNAAGKDGKERLGGSVLGQIPFLQNCEDEDSDEDDELDSVQHKKQRVKLPSKALVPEMEDEDEEDDSEDAINEFDFLGSGEDGEGAPDPRRCTVDGSPHELESRRVKLQGILADLRDVDGLPPKVTGPPPGTPQPRPHEDVFIMDTIGGGEVSLGDLADLTVTNDNDLSCDLSDSKDAFKKTWNPKFTLRSHYDGIRSLAFHHSQSALLTASEDGTLKLWNLQKAVTAKKNAALDVEPIHAFRAHRGPVLAVAMGSNSEYCYSGGADACIHSWKIPDLSMDPYDGYDPSVLSHVLEGHGDAVWGLAFSPTSQRLASCSADGTVRIWDPSSSSPACLCTFPTASEHGVPTSVAFTSTEPAHIVASFRSGDTVLYDMEVGSALLTLESRGSSGPTQINQVVSHPNQPLTITAHDDRGIRFLDNRTGKPVHSMVAHLDAVTCLAVDPNGAFLMSGSHDCSLRLWSLDNKTCVQEITAHRKKHEEAIHAVACHPSKALIASAGADALAKVFV [STRN4] | 50.6 | 50.4 | 0.143 | 0.0318 | -0.085 | 0.104 |
| MGLQPLEFSDCYLDSPWFRERIRAHEAELERTNKFIKELIKDGKNLIAATKSLSVAQRKFAHSLRDFKFEFIGDAVTDDERCIDASLREFSNFLKNLEEQREIMALSVTETLIKPLEKFRKEQLGAVKEEKKKFDKETEKNYSLIDKHLNLSAKKKDSHLQEADIQVEQNRQHFYELSLEYVCKLQEIQERKKFEFVEPMLSFFQGMFTFYHQGHELAKDFNHYKMELQINIQNTRNRFEGTRSEVEELMNKIRQNPKDHKRASQFTAEGYLYVQEKRPAPFGSSWVKHYCMYRKAAKKFNMIPFEHRSGGKLGDGEVFFLKECTKRHTDSIDRRFCFDIEAADRPGVSLTMQAFSEEERKQWLEALGGKEALSHSFNTAIIPRPEGNAQLDKMGFTIIRKCISAVETRGINDQGLYRVVGVSSKVQRLLSMLMDVKTCNEVDLENSADWEVKTITSALKQYLRSLPEPLMTYELHGDFIVPAKSGSPESRVNAIHFLVHKLPEKNKEMLDILVKHLTNVSNHSKQNLMTVANLGVVFGPTLMRPQEETVAALMDLKFQNIVVEILIENHEKIFRTPPDTTFPEPTCLSASPPNAPPRQSKRQGQRTKRPVAVYNLCLELEDGDNPYPSKEDTPTSSLDSLSSPSPVTTAVPGPPGPDKNHLLADGGSFGDWASTIPGQTRSSMVQWLNPQSPTTTSSNSAVTPLSPGSSPFPFSPPATVADKPPESIRSRKARAVYPCEAEHSSELSFEIGAIFEDVQTSREPGWLEGTLNGKRGLIPQNYVKLL [ARHGAP10] | 51.7 |  | -0.188 | -0.186 | 0.08 | -0.255 |
| MSWVQATLLARGLCRAWGGTCGAALTGTSISQVPRRLPRGLHCSAAAHSSEQSLVPSPPEPRQRPTKALVPFEDLFGQAPGGERDKASFLQTVQKFAEHSVRKRGHIDFIYLALRKMREYGVERDLAVYNQLLNIFPKEVFRPRNIIQRIFVHYPRQQECGIAVLEQMENHGVMPNKETEFLLIQIFGRKSYPMLKLVRLKLWFPRFMNVNPFPVPRDLPQDPVELAMFGLRHMEPDLSARVTIYQVPLPKDSTGAADPPQPHIVGIQSPDQQAALARHNPARPVFVEGPFSLWLRNKCVYYHILRADLLPPEEREVEETPEEWNLYYPMQLDLEYVRSGWDNYEFDINEVEEGPVFAMCMAGAHDQATMAKWIQGLQETNPTLAQIPVVFRLAGSTRELQTSSAGLEEPPLPEDHQEEDDNLQRQQQGQS [ECSIT] | 54.4 | 56.1 | 2.4 | 3.63 | -0.1 | -0.0136 |
| MVHQVLYRALVSTKWLAESIRTGKLGPGLRVLDASWYSPGTREARKEYLERHVPGASFFDIEECRDTASPYEMMLPSEAGFAEYVGRLGISNHTHVVVYDGEHLGSFYAPRVWWMFRVFGHRTVSVLNGGFRNWLKEGHPVTSEPSRPEPAVFKATLDRSLLKTYEQVLENLESKRFQLVDSRSQGRFLGTEPEPDAVGLDSGHIRGAVNMPFMDFLTEDGFEKGPEELRALFQTKKVDLSQPLIATCRKGVTACHVALAAYLCGKPDVAVYDGSWSEWFRRAPPESRVSQGKSEKA [TST] | 48.3 | 49.3 | 5.41 | 3.98 | -0.0824 | 0.187 |
| MANQVNGNAVQLKEEEEPMDTSSVTHTEHYKTLIEAGLPQKVAERLDEIFQTGLVAYVDLDERAIDALREFNEEGALSVLQQFKESDLSHVQNKSAFLCGVMKTYRQREKQGSKVQESTKGPDEAKIKALLERTGYTLDVTTGQRKYGGPPPDSVYSGVQPGIGTEVFVGKIPRDLYEDELVPLFEKAGPIWDLRLMMDPLSGQNRGYAFITFCGKEAAQEAVKLCDSYEIRPGKHLGVCISVANNRLFVGSIPKNKTKENILEEFSKVTEGLVDVILYHQPDDKKKNRGFCFLEYEDHKSAAQARRRLMSGKVKVWGNVVTVEWADPVEEPDPEVMAKVKVLFVRNLATTVTEEILEKSFSEFGKLERVKKLKDYAFVHFEDRGAAVKAMDEMNGKEIEGEEIEIVLAKPPDKKRKERQAARQASRSTAYEDYYYHPPPRMPPPIRGRGRGGGRGGYGYPPDYYGYEDYYDDYYGYDYHDYRGGYEDPYYGYDDGYAVRGRGGGRGGRGAPPPPRGRGAPPPRGRAGYSQRGAPLGPPRGSRGGRGGPAQQQRGRGSRGSRGNRGGNVGGKRKADGYNQPDSKRRQTNNQQNWGSQPIAQQPLQQGGDYSGNYGYNNDNQEFYQDTYGQQWK [HNRNPR] | 47.8 | 49.4 | 2.99 | 8.2 | 0.234 | -0.12 |
